B1: anti-E-selectin antibody 0158 chimera (antibody, human IgG1, kappa, V domains shown)
VH: QVQLKESGPGLVQPSETLSLTCTVSGFSISTYNVHWLRQPPGKGLEWMGMMWSGGSPDYNSALKSRLSISRDTSKNQVFLKMNSLQSEDTTTYYCARWGGGFDYWGQGVMVTVSS
VL: DIVLTQSPTTLSVTPGETVSLSCRASHSIGTNLHWYQQKTNESPRLLIKFTSQSISGIPSRFSASGSGTDFTLNINNVEFDDVSSYFCQQTQSWPLTFGSGTKLEIKR
notes: rat VH/VL on effector-null human IgG1 and human kappa
B2: anti-E-selectin antibody 0039 chimera (antibody, human IgG1, kappa, V domains shown)
VH: QVQLKETGPGLVQPTQTLSITCTVSGFSLTGYYMQWVRQTPGKGLEWMGFIRSSGSTEYNSEFKSRLSISRDTSKNQVFLKMNSLKTEDTGVYYCARCPYKYSSFVYVGVMDAWGQGAPVTVSS
VL: EIVMTQSPTSMSTSIGERVTLNCKASQTVGINVDWYQQTPGQPPKLLIYGASNRHTGVPDRFTGSGFGRDFTLTISNVEAEDLAVYCCLQYGSIPHTFGPGTKLELKR
notes: as for B1
B3: anti-E-selectin antibody 0159 chimera (antibody, human IgG1, kappa, V domains shown)
VH: EVQLQQSGAELGKPGTSVKLSCKVSGYNIRSTYMHWVSQRPGKGLEWIGRIDPANGNTIYAEKFKRKATLTADTSSNTAYMQLSQLKSDDRAIYFCAMEVRVSFEYWGQGVMVTVSS
VL: DIQMTQSPSFLSASVGDRVTINCKASQNINKYLDWYQQKLGEGPKLLIYYTNNLHTGIPSRFSGSGSGTDFTLTISSLQPEDVATYFCLQHDSGYTFGAGTKLELKR
notes: as for B1
B4: anti-E-selectin antibody 0170 chimera (antibody, human IgG1, kappa, V domains shown)
VH: EVQLQQSGAELGKPGTSVKLSCKVSGYSIRSTYMHWVNQRPGKGLEWVGRIDPANGNTIYAERFKNKATLTADTSSNTAYMQLSQLKSDDTAIYFCAVEILGIFDYWGQGVMVTVSS
VL: DIQMTQSPSFLSASVGDRVTINCKASQNIDKYLDWYQQKLGEAPKLLMYNTNSLHTGIPSRFSGSGSGTDFTLTISSLQPEDVATYFCLQHNSGYTFGAGTKLELKR
notes: as for B1
B5: anti-E-selectin antibody 0180 chimera (antibody, human IgG1, kappa, V domains shown)
VH: EVQLQQSGAELGKPGTSVKLSCKVSGYKIRSSYMHWVNQRPGKGLEWIGRIDPANGNTIYGDKFKSKATLTSDTSSNTAYIQLSQLKSDDTAIYFCAIDIGTTFDYWGQGVMVTVSS
VL: DIQMTQSPSFLSASVGDRVTINCKASQHINRYLNWYQQKLGEAPKLLIYDANNLQTGIPSRFSGSGSGTDFTLTISSLQPEDVATYFCLQHNSWPNTFGAGTKLELKR
notes: as for B1
B6: anti-E-selectin antibody 0164 chimera (antibody, human IgG1, kappa, V domains shown)
VH: EVQLQQSGAEFGKPGTSVKLSCKVSGYNIRSSYMHWVNQRPGKGLEWIGRIDPANGNTIYAEKFKIKAILTADSSSNTAYMQLSQLKSDDTAIYFCAMDLYSTSEYWGQGVMVTVSS
VL: DIQMTQSPSFLSASVGDRVTINCKTSQNINRYLNWYQQKLGEAPKLLIYNANSLQTGIPSRFSASGSGTDFTLTINSLQPEDVATYFCLQDNSWPLTFGSGTKLEIKR
notes: as for B1

Assays:
[1] = target: T1, human E-selectin, cell-surface expressed (human, UniProt P16581 22-610); experiment: flow cytometry, CHO cells
T1 construct: also called CHO-human E-selectin cells; human CHO-E
T1 sequence: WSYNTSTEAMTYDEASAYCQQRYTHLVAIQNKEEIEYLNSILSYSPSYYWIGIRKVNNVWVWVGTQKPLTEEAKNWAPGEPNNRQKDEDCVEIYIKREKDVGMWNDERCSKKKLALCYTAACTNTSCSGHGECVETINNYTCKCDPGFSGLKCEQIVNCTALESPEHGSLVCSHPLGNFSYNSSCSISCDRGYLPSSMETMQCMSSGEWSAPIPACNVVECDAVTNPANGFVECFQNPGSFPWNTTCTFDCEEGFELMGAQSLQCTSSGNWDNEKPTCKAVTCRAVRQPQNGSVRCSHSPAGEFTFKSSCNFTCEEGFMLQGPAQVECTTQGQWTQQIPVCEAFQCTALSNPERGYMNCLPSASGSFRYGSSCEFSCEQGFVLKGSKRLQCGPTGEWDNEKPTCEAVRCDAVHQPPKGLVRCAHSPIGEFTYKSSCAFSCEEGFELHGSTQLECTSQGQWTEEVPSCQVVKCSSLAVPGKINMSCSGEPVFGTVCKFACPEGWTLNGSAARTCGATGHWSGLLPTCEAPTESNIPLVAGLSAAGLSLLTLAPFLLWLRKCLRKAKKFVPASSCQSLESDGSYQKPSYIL
Protocol: (§1) Cells were maintained in growth medium at 37° C., 5% CO₂ and 95% air in a humidified incubator. Methotrexate or Zeocin were removed from the medium prior to culture for experiments. CHO-E selectin cells or P-selectin cells were detached from T-150 flasks using citric saline (135 mM KCl, 15 mM sodium citrate) and immediately re-calcified with the addition of CaCl₂) to the detached cells to a final concentration of 1 mM. Growth media was immediately added to the detached cells, then centrifuged at 300×g for 5 minutes at room temperature to pellet the cells. Cells were plated into 96-well V-bottom plates in cold CHO buffer consisting of phosphate buffered saline (PBS), pH 7.4 containing bovine serum albumin (BSA; Sigma-Aldrich) at final concentration of 1%, calcium chloride at final concentration of 1 mM, and sodium azide at a final concentration of 0.1%, for 5 minutes on wet ice. After incubation, the cells were centrifuged at 300×g for 2 minutes at 4° C. to remove the buffer.
(§2) After incubation, antibodies were removed and the cells were washed three times by centrifugation at 300×g for 1 minute at 4° C. and resuspended in cold CHO buffer. The washed cells were incubated for 30 minutes on wet ice with 100 μL of a 1:1000 dilution of APC-conjugated AffiniPure F(ab′)₂ Fragment Goat Anti-human IgG, Fcγ (Jackson Imnnunoresearch). The cells were washed three or four times prior to resuspension in CHO buffer for flow cytometric analysis. A Becton Dickinson LSRFortessa instrument using 640 nanometer laser line was used to acquire cell fluorescence data. Geometric mean fluorescence of cells was analyzed by FlowJo software package (FlowJo, LLC) and plotted against antibody concentration. The estimated EC₅₀ values were calculated using nonlinear regression analysis in the Prism suite (GraphPad, version 8) (Table 8).

[2] = target: T2, cynomolgus monkey E-selectin, cell-surface expressed (cynomolgus monkey, UniProt P16581 22-610 (human entry)); experiment: flow cytometry, CHO cells
T2 construct: also called CHO-cynomolgus monkey E-selectin cells; cynomolgus monkey CHO-E
T2 chain: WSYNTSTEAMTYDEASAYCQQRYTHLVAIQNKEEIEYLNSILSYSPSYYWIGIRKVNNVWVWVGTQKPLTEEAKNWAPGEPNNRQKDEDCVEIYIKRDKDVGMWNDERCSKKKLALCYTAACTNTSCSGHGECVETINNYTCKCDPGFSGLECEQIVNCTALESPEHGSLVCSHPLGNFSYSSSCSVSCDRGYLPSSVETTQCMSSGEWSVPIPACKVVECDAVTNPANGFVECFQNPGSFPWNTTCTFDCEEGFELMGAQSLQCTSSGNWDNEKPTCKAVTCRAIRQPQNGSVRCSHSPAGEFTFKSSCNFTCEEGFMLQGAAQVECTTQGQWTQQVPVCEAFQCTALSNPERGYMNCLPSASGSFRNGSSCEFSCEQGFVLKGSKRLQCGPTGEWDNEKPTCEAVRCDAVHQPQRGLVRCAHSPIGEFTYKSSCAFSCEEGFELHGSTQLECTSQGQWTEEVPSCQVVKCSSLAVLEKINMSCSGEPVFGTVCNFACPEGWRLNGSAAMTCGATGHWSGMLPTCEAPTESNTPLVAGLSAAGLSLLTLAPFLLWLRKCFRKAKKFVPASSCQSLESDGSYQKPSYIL
Protocol: as §1, §2

[3] = target: T1, human E-selectin, cell-surface expressed; experiment: competition ELISA on CHO cells vs sialyl Lewis A-PAA-biotin/SA-HRP
Protocol: The ability of anti-E-selectin antibodies to neutralize ligand binding was assessed in a static neutralization assay using a competition enzyme-linked immunosorbent assay (ELISA) to evaluate the neutralization of the sialyl Lewis antigen to Chinese hamster ovary cells (CHO) engineered to express E-selectin.
Briefly, CHO cells expressing human E-selectin were grown in culture medium (MEM (Minimum Essential Medium) Alpha Medium, supplemented with 10% dialyzed fetal bovine serum, 100 nM methotrexate and 100 Units/mL penicillin and 100 μg/mL streptomycin) and were seeded at 12,500 cells per well into a 96 well tissue culture plate and incubated at 37° C., 5% CO₂ for 48 hours to form a confluent monolayer. Plates were subsequently washed twice with 200 μL of calcium magnesium free phosphate buffered saline (PBS). […] Plates were then washed twice with 200 μL of calcium magnesium free PBS. Following the incubation, the cells were washed twice with 200 μL of wash buffer containing 2 mM of calcium chloride (50 mM TRIS [trisaminomethane], 150 mM sodium chloride; 0.05% polysorbate 20, pH 7.4; 2 mM of calcium chloride). Signal was developed by adding 100 μL of 1-Step Ultra TMB substrate (Thermo Scientific, 34028) and incubating for 30 minutes at room temperature. Reactions were stopped using 2 M of sulfuric acid and absorbance read at 450 nm (Spectramax M5e). Data were analyzed and graphed using GraphPad Prism software (Version 8.0.2).

| Binder | EC50 [1] [nM] | EC50 [2] [nM] | IC50 [3] [nM] |
| --- | --- | --- | --- |
| B1 | 3.75 | 14 | 2.87 |
| B2 | 4.99 | 4.07 | 3.76 |
| B3 | 2.44 | 3.37 | 3.24 |
| B4 | 1.99 | 3.76 | 2.3 |
| B5 | 4.31 | 3.66 | 3.83 |
| B6 | 4.43 | 1.73 | 2.77 |

— patent US20240076386A1 (Pfizer, published 2024)
